Test results from patent US20140087995A1 (published 2014).
Numbered stars: 1 amine (or outer) side, 2 acyl side, 3 side chain; on linkers, the order of the positions; unused ones are H or OH. Bridge positions count the residues as written; N and C are the ends. * marks the point of attachment. C20 diacid = O=C(O)CCCCCCCCCCCCCCCCCCC(=O)*; γGlu = O=C(O)[C@H](CCC(=O)[*:2])N[*:1]

T1: human calcitonin receptor (human, UniProt P30988 25-474)
T1 construct: whole, on cells; Cell membranes of a stably transfected BHK cell line (Assay VII); also called hCTR; hCT
T1 sequence (looked up): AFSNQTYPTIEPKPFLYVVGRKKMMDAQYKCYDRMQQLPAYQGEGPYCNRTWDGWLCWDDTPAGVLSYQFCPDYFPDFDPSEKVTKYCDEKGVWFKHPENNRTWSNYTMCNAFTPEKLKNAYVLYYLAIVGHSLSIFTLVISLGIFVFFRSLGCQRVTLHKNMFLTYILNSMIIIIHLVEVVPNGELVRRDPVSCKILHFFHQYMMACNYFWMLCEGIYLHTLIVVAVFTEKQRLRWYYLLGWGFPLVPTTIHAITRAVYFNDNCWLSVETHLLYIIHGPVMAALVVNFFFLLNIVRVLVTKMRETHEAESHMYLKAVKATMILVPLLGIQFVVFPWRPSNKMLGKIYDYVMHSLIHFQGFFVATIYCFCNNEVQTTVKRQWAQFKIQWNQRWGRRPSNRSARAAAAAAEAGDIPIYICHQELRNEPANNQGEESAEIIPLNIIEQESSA

T2: rat amylin receptor (rat calcitonin receptor + rat RAMP 3) (rat, UniProt P32214 25-516; Q9JJ73 23-147)
T2 construct: whole, on cells; Cell membranes of transiently transfected BHK tk'ts 13 cells (Assay VI); also called rAmylin-R; rat amylin 3(a) receptor
T2 sequence (looked up) 1: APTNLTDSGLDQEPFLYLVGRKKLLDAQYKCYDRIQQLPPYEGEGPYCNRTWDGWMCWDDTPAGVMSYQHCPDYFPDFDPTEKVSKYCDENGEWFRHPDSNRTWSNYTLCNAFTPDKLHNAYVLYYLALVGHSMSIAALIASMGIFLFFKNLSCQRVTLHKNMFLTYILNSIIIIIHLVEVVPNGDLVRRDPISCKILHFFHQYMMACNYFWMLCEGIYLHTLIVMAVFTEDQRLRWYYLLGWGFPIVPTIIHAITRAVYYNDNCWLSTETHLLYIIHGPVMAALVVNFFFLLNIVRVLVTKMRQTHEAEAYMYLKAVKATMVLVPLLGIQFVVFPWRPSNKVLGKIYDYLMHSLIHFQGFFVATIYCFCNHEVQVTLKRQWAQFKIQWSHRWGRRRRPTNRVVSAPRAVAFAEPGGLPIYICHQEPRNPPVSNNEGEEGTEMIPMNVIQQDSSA
T2 sequence (looked up) 2: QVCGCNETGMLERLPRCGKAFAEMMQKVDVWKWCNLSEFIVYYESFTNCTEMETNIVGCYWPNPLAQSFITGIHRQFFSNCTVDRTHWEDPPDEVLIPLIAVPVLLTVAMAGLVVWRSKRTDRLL

T3: rat calcitonin receptor (rat, UniProt P32214 25-516)
T3 construct: whole, on cells; Cell membranes of transiently transfected BHK tk'ts 13 cells (Assay VIII); also called rCTR; rCT
T3 sequence (looked up): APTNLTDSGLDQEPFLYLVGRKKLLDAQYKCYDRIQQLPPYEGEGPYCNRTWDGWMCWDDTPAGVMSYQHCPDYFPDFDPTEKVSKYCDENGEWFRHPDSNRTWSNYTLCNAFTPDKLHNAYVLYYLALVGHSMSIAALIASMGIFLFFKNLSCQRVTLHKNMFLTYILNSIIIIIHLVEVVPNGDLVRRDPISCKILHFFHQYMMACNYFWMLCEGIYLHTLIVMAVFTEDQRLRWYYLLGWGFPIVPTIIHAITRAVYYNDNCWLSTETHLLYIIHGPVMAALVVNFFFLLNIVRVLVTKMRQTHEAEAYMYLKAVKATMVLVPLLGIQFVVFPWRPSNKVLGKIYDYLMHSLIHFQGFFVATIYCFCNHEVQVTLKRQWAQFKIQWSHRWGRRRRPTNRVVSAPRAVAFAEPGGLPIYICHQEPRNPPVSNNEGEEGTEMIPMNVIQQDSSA


Tests used:
[1] = target: T1, human calcitonin receptor; assay: ratio IC50 human calcitonin receptor / IC50 human amylin receptor
Procedure: The resulting pellet was resuspended, homogenized and centrifuged (20.000 rpm, 15 min) in a buffer containing 20 mM Na-HEPES and 0.1 mM EDTA (pH 7.4, buffer 2). The resulting pellet was resuspended in buffer 2 and protein concentration was measured (BCA protein Assay, Pierce). The homogenate was kept cold during the whole procedure. The membranes were kept at −80° C. until use. The assay was performed in a 384 well Optiplate (PerkinElmer) in a total volume of 40 ul. Membranes were mixed with SPA beads. Final concentration of membranes 35 ng/μL final and SPA beads was 0.05 mg/well. Test-compounds were dissolved in DMSO and further diluted in assay buffer (50 mM Hepes, pH 7.4, 1 mM CaCl2, 5 mM MgCl₂, 0.1% OA and 0.02% Tween20). […] The final mixture was incubated with shaking at 400 rpm for 120 min at 25° C. prior to centrifugation (1500 rpm, 10 min). Samples were analyzed on TopCounter™ (Packard). The IC₅₀ was calculated using (one site binding competition analysis) GraphPad Prism5 as a measure of receptor affinity.
Membranes were prepared in the following way; the cells were rinsed with PBS and incubated with Versene for approximately 5 min before harvesting. The cells were flushed with PBS and the cell-suspension was centrifuged for 5 min at 1000 rpm. Cells were homogenized (Ultrathurrax) in a buffer containing 20 mM Na-HEPES and 10 mM EDTA (pH 7.4) and centrifuged at 20.000 rpm for 15 min. The resulting pellet was resuspended, homogenized and centrifuged (20.000 rpm, 15 min) in a buffer containing 20 mM Na-HEPES and 0.1 mM EDTA (pH 7.4, buffer 2). The resulting pellet was resuspended in buffer 2 and protein concentration was measured (BCA protein Assay, Pierce). The homogenate was kept cold during the whole procedure. The membranes were kept at −80° C. until use. Assay was performed in a 384 well Optiplate (PerkinElmer) in a total volume of 40 ul. Membranes were mixed with SPA beads.

[2] = target: T2, rat amylin receptor (rat calcitonin …); assay: SPA competition vs 125I-rat amylin, membranes with rat CTR + rat RAMP3 (Assay VI)
[3] = target: T3, rat calcitonin receptor; assay: ratio IC50 rat calcitonin receptor / IC50 rat amylin receptor
[4] = target: T3, rat calcitonin receptor; assay: SPA competition vs 125I-calcitonin, membranes with rat CTR (Assay VIII)

Binder	Ratio hCT/hAmylin binding [1]	IC50 [2]	Ratio rCT/rAmylin binding [3]	IC50 [4]
{C20 diacid-γGlu-γGlu}-KCNTATCATQRLAEFLRHSSPNFGAIPSSTNVGSNTY-NH2 (disulfide 2-7; SMILES CC[C@H](C)[C@H](NC(=O)[C@H](C)NC(=O)CNC(=O)[C@H](Cc1ccccc1)NC(=O)[C@H](CC(N)=O)NC(=O)[C@@H]1CCCN1C(=O)[C@H](CO)NC(=O)[C@H](CO)NC(=O)[C@H](Cc1c[nH]cn1)NC(=O)[C@H](CCCNC(=N)N)NC(=O)[C@H](CC(C)C)NC(=O)[C@H](Cc1ccccc1)NC(=O)[C@H](CCC(=O)O)NC(=O)[C@H](C)NC(=O)[C@H](CC(C)C)NC(=O)[C@H](CCCNC(=N)N)NC(=O)[C@H](CCC(N)=O)NC(=O)[C@@H](NC(=O)[C@H](C)NC(=O)[C@@H]1CSSC[C@H](NC(=O)[C@H](CCCCN)NC(=O)CC[C@H](NC(=O)CC[C@H](NC(=O)CCCCCCCCCCCCCCCCCCC(=O)O)C(=O)O)C(=O)O)C(=O)N[C@@H](CC(N)=O)C(=O)N[C@@H]([C@@H](C)O)C(=O)N[C@@H](C)C(=O)N[C@@H]([C@@H](C)O)C(=O)N1)[C@@H](C)O)C(=O)N1CCC[C@H]1C(=O)N[C@@H](CO)C(=O)N[C@@H](CO)C(=O)N[C@H](C(=O)N[C@@H](CC(N)=O)C(=O)N[C@H](C(=O)NCC(=O)N[C@@H](CO)C(=O)N[C@@H](CC(N)=O)C(=O)N[C@H](C(=O)N[C@@H](Cc1ccc(O)cc1)C(N)=O)[C@@H](C)O)C(C)C)[C@@H](C)O, Acylated analogue of human amylin; also called compound 15)	26	–	–	–
KCNTATCATQRLANFLRHSSPNFGAIPSSTNVGSETY (C20 diacid-gGlu on alpha-amino of the N-terminal residue; Cys2-Cys7 disulfide; C-terminal amide (as human amylin), Acylated analogue of human amylin; also called compound 23) [N^α1-[(4S)-4-carboxy-4-(19-carboxynonadecanoylamino)butanoyl]-[Arg17,Pro21,Pro27,Glu35]-h-amylin]	25	1.12 nM	71.3	79.9 nM

The remaining binders from weak to strong by IC50 [2], led by results:

Ratio hCT/hAmylin binding [1]	IC50 [2]	Ratio rCT/rAmylin binding [3]	IC50 [4]	Binder
64.4	1.72 nM	52	89.2 nM	KCNTATCATQRLANFLRHSSPNFGAIPSSTNVGSKTY (C20 diacid-gGlu on alpha-amino of the N-terminal residue; Cys2-Cys7 disulfide; C-terminal amide (as human amylin), Acylated analogue of human amylin; also called compound 34) [N^α1-[(4S)-4-carboxy-4-(19-carboxynonadecanoylamino)butanoyl]-[Arg17,Pro21,Pro27,Lys35]-h-amylin]
36.7	1.02 nM	93.6	95.6 nM	KCNTATCATQRLAEFLRHSSPNFGAIPSSTNVGSNTY (C20 diacid-gGlu-2xOEG on alpha-amino of the N-terminal residue; Cys2-Cys7 disulfide; C-terminal amide (as human amylin), Acylated analogue of human amylin; also called compound 19)
